Experimental data as given in the supplement of paper PMC9112550, “Optimization of the antimicrobial peptide Bac7 by deep mutational scanning” (BMC Biology, 2022).

Each sequence was assayed on Escherichia coli TOP10 (assay: shrunken log2 fold change of peptide-encoding DNA abundance (4.5 h post-induction vs induction); higher = less antimicrobial activity (less host growth inhibition)). Conditions: time post-induction: 4.5 h; library: site-saturation at positions 5, 18, 19, 20.
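Further: peptides expressed intracellularly from a pBAD plasmid library in pooled LB shake-flask culture, induced with 0.3% L-arabinose, DNA abundance read by NGS, three biological replicates, DESeq2 with apeglm shrinkage.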

Sequence | shrunken log2 fold change
RRIRKRPPRLPRPRPRPKTGPRP | 0.821
RRIRKRPPRLPRPRPRPKWMPRP | -0.168
RRIRKRPPRLPRPRPRPKYCPRP | -0.632
RRIRKRPPRLPRPRPRPKYVPRP | 0.0381
RRIRKRPPRLPRPRPRPLCDPRP | 0.376
RRIRKRPPRLPRPRPRPLCEPRP | 0.446
RRIRKRPPRLPRPRPRPLENPRP | 0.228
RRIRKRPPRLPRPRPRPLEPPRP | 0.238
RRIRKRPPRLPRPRPRPLFKPRP | 0.11
RRIRKRPPRLPRPRPRPLFQPRP | 0.181
RRIRKRPPRLPRPRPRPLGAPRP | 0.58
RRIRKRPPRLPRPRPRPLGHPRP | 0.166
RRIRKRPPRLPRPRPRPLGMPRP | 0.11
RRIRKRPPRLPRPRPRPLLLPRP | -0.105
RRIRKRPPRLPRPRPRPLMQPRP | -0.134
RRIRKRPPRLPRPRPRPLMTPRP | 0.175
RRIRKRPPRLPRPRPRPLNFPRP | 0.103
RRIRKRPPRLPRPRPRPLNYPRP | -0.217
RRIRKRPPRLPRPRPRPLRAPRP | 1.23
RRIRKRPPRLPRPRPRPLRKPRP | 0.968
RRIRKRPPRLPRPRPRPLRMPRP | 0.236
RRIRKRPPRLPRPRPRPLRSPRP | 0.962
RRIRKRPPRLPRPRPRPLSDPRP | 0.22
RRIRKRPPRLPRPRPRPLSGPRP | -0.0828
RRIRKRPPRLPRPRPRPLSYPRP | -0.0509

Sequence | shrunken log2 fold change
RRIRKRPPRLPRPRPRPLTIPRP | 0.146
RRIRKRPPRLPRPRPRPLVKPRP | 0.195
RRIRKRPPRLPRPRPRPLWDPRP | 0.609
RRIRKRPPRLPRPRPRPLWFPRP | 0.107
RRIRKRPPRLPRPRPRPLWPPRP | 0.46
RRIRKRPPRLPRPRPRPLYKPRP | -0.112
RRIRKRPPRLPRPRPRPMASPRP | 0.55
RRIRKRPPRLPRPRPRPMCEPRP | 0.12
RRIRKRPPRLPRPRPRPMCRPRP | 0.625
RRIRKRPPRLPRPRPRPMCSPRP | -0.0421
RRIRKRPPRLPRPRPRPMDCPRP | 0.0101
RRIRKRPPRLPRPRPRPMEDPRP | -0.00186
RRIRKRPPRLPRPRPRPMFHPRP | -0.144
RRIRKRPPRLPRPRPRPMKEPRP | 0.0132
RRIRKRPPRLPRPRPRPMLFPRP | 0.315
RRIRKRPPRLPRPRPRPMLNPRP | 0.174
RRIRKRPPRLPRPRPRPMLQPRP | 0.122
RRIRKRPPRLPRPRPRPMNQPRP | -0.153
RRIRKRPPRLPRPRPRPMNSPRP | -0.0163
RRIRKRPPRLPRPRPRPMPFPRP | 0.0304
RRIRKRPPRLPRPRPRPMPVPRP | -0.00341
RRIRKRPPRLPRPRPRPMSCPRP | 0.0384
RRIRKRPPRLPRPRPRPMTHPRP | -0.00695
RRIRKRPPRLPRPRPRPMTQPRP | -0.0547
RRIRKRPPRLPRPRPRPMTWPRP | -0.00388

Sequence | shrunken log2 fold change
RRIRKRPPRLPRPRPRPMVSPRP | 0.0111
RRIRKRPPRLPRPRPRPMYCPRP | -0.233
RRIRKRPPRLPRPRPRPMYEPRP | -0.132
RRIRKRPPRLPRPRPRPMYSPRP | -0.11
RRIRKRPPRLPRPRPRPNAQPRP | 0.842
RRIRKRPPRLPRPRPRPNCVPRP | 0.109
RRIRKRPPRLPRPRPRPNCWPRP | 0.621
RRIRKRPPRLPRPRPRPNEEPRP | -1.35e-05
RRIRKRPPRLPRPRPRPNEGPRP | 0.0728
RRIRKRPPRLPRPRPRPNEIPRP | 0.118
RRIRKRPPRLPRPRPRPNEYPRP | 0.0869
RRIRKRPPRLPRPRPRPNFMPRP | -0.117
RRIRKRPPRLPRPRPRPNHPPRP | 0.0844
RRIRKRPPRLPRPRPRPNLQPRP | 0.279
RRIRKRPPRLPRPRPRPNMDPRP | -0.0504
RRIRKRPPRLPRPRPRPNMPPRP | 0.145
RRIRKRPPRLPRPRPRPNMTPRP | 0.0525
RRIRKRPPRLPRPRPRPNPEPRP | 0.0292
RRIRKRPPRLPRPRPRPNPGPRP | 0.155
RRIRKRPPRLPRPRPRPNQGPRP | 0.079
RRIRKRPPRLPRPRPRPNQKPRP | 0.11
RRIRKRPPRLPRPRPRPNRIPRP | 0.0866
RRIRKRPPRLPRPRPRPNSNPRP | -0.115
RRIRKRPPRLPRPRPRPNSTPRP | -0.0291
RRIRKRPPRLPRPRPRPNTAPRP | 0.159

Sequence | shrunken log2 fold change
RRIRKRPPRLPRPRPRPNTEPRP | 0.0416
RRIRKRPPRLPRPRPRPNTFPRP | -0.0899
RRIRKRPPRLPRPRPRPNTHPRP | -0.125
RRIRKRPPRLPRPRPRPNTSPRP | 0.0472
RRIRKRPPRLPRPRPRPNWAPRP | 0.279
RRIRKRPPRLPRPRPRPNWSPRP | 0.139
RRIRKRPPRLPRPRPRPPCFPRP | 0.211
RRIRKRPPRLPRPRPRPPDNPRP | 0.0807
RRIRKRPPRLPRPRPRPPEGPRP | 1.08
RRIRKRPPRLPRPRPRPPEPPRP | 0.842
RRIRKRPPRLPRPRPRPPEYPRP | 0.0748
RRIRKRPPRLPRPRPRPPFCPRP | -0.0397
RRIRKRPPRLPRPRPRPPGHPRP | 0.377
RRIRKRPPRLPRPRPRPPGIPRP | 0.279
RRIRKRPPRLPRPRPRPPGNPRP | 0.712
RRIRKRPPRLPRPRPRPPGRPRP | 2.07
RRIRKRPPRLPRPRPRPPHHPRP | 0.322
RRIRKRPPRLPRPRPRPPHIPRP | 0.41
RRIRKRPPRLPRPRPRPPITPRP | 0.0882
RRIRKRPPRLPRPRPRPPIWPRP | 0.106
RRIRKRPPRLPRPRPRPPKIPRP | 0.405
RRIRKRPPRLPRPRPRPPKPPRP | 0.319
RRIRKRPPRLPRPRPRPPLMPRP | 0.396
RRIRKRPPRLPRPRPRPPNMPRP | 0.0839
RRIRKRPPRLPRPRPRPPPQPRP | 1.02

Sequence | shrunken log2 fold change
RRIRKRPPRLPRPRPRPPPVPRP | 0.751
RRIRKRPPRLPRPRPRPPPWPRP | 1.03
RRIRKRPPRLPRPRPRPPQCPRP | 0.26
RRIRKRPPRLPRPRPRPPQQPRP | 0.346
RRIRKRPPRLPRPRPRPPRMPRP | 0.648
RRIRKRPPRLPRPRPRPPTFPRP | 0.149
RRIRKRPPRLPRPRPRPPVIPRP | 0.063
RRIRKRPPRLPRPRPRPPVPPRP | 0.794
RRIRKRPPRLPRPRPRPPVYPRP | 0.387
RRIRKRPPRLPRPRPRPPWAPRP | 0.496
RRIRKRPPRLPRPRPRPPWNPRP | 0.136
RRIRKRPPRLPRPRPRPQACPRP | -0.109
RRIRKRPPRLPRPRPRPQFHPRP | 0.119
RRIRKRPPRLPRPRPRPQFMPRP | -0.54
RRIRKRPPRLPRPRPRPQFSPRP | 0.0164
RRIRKRPPRLPRPRPRPQFWPRP | 0.248
RRIRKRPPRLPRPRPRPQGSPRP | -0.0103
RRIRKRPPRLPRPRPRPQGWPRP | 0.116
RRIRKRPPRLPRPRPRPQHQPRP | 0.122
RRIRKRPPRLPRPRPRPQIGPRP | -0.0295
RRIRKRPPRLPRPRPRPQKCPRP | 0.00165
RRIRKRPPRLPRPRPRPQKYPRP | -0.184
RRIRKRPPRLPRPRPRPQLKPRP | 0.275
RRIRKRPPRLPRPRPRPQLPPRP | -0.105
RRIRKRPPRLPRPRPRPQLVPRP | 0.225

Sequence | shrunken log2 fold change
RRIRKRPPRLPRPRPRPQMGPRP | 0.0203
RRIRKRPPRLPRPRPRPQNFPRP | -0.214
RRIRKRPPRLPRPRPRPQNQPRP | 0.0634
RRIRKRPPRLPRPRPRPQNVPRP | -0.0694
RRIRKRPPRLPRPRPRPQNYPRP | -0.196
RRIRKRPPRLPRPRPRPQPKPRP | 0.19
RRIRKRPPRLPRPRPRPQRQPRP | 0.265
RRIRKRPPRLPRPRPRPQVLPRP | -0.165
RRIRKRPPRLPRPRPRPQVRPRP | -0.117
RRIRKRPPRLPRPRPRPQWHPRP | 0.104
RRIRKRPPRLPRPRPRPQWLPRP | 0.0628
RRIRKRPPRLPRPRPRPRACPRP | 0.474
RRIRKRPPRLPRPRPRPRALPRP | 0.396
RRIRKRPPRLPRPRPRPRCCPRP | 0.491
RRIRKRPPRLPRPRPRPRCEPRP | 0.568
RRIRKRPPRLPRPRPRPRCMPRP | 0.401
RRIRKRPPRLPRPRPRPRCNPRP | 0.196
RRIRKRPPRLPRPRPRPRCVPRP | 0.276
RRIRKRPPRLPRPRPRPRDVPRP | 0.316
RRIRKRPPRLPRPRPRPREDPRP | 0.346
RRIRKRPPRLPRPRPRPREFPRP | 0.607
RRIRKRPPRLPRPRPRPRERPRP | 0.358
RRIRKRPPRLPRPRPRPRHKPRP | 0.458
RRIRKRPPRLPRPRPRPRHWPRP | 0.0398
RRIRKRPPRLPRPRPRPRICPRP | 0.0539
